Patent publication US20250242041A1 (Seagen, published 2025)

Legend:
[1] = molecular target: T1, human αvβ6 on 293F:huβ6 cells (human, UniProt P06756 31-1048; P18564 22-788); experiment: competition binding on 293F cells
T1 chain 1: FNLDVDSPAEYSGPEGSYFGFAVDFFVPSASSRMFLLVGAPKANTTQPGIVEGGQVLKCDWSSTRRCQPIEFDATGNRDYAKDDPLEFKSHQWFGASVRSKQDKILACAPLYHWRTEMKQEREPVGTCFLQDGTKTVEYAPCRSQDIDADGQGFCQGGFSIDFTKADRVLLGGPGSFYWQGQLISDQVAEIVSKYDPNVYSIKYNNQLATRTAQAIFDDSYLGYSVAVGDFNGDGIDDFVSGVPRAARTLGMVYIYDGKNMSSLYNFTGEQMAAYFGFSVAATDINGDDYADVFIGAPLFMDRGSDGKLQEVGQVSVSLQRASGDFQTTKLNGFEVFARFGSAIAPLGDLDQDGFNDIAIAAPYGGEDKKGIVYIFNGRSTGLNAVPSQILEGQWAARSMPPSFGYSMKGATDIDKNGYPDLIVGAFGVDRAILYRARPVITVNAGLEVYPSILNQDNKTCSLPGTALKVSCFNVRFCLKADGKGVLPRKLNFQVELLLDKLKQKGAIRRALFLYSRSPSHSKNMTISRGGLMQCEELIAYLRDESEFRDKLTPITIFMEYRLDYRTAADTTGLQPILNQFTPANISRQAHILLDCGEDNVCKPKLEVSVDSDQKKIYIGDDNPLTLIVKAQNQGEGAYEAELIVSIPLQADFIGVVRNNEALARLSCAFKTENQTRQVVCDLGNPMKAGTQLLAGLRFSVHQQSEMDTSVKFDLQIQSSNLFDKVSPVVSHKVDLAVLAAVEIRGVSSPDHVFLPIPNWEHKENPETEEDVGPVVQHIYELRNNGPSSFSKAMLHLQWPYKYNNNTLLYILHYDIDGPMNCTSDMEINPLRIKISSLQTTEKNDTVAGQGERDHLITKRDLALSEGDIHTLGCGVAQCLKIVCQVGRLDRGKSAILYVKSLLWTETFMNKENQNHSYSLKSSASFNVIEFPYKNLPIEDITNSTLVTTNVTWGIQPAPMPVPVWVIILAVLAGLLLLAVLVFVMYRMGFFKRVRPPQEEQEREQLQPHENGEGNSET
T1 chain 2: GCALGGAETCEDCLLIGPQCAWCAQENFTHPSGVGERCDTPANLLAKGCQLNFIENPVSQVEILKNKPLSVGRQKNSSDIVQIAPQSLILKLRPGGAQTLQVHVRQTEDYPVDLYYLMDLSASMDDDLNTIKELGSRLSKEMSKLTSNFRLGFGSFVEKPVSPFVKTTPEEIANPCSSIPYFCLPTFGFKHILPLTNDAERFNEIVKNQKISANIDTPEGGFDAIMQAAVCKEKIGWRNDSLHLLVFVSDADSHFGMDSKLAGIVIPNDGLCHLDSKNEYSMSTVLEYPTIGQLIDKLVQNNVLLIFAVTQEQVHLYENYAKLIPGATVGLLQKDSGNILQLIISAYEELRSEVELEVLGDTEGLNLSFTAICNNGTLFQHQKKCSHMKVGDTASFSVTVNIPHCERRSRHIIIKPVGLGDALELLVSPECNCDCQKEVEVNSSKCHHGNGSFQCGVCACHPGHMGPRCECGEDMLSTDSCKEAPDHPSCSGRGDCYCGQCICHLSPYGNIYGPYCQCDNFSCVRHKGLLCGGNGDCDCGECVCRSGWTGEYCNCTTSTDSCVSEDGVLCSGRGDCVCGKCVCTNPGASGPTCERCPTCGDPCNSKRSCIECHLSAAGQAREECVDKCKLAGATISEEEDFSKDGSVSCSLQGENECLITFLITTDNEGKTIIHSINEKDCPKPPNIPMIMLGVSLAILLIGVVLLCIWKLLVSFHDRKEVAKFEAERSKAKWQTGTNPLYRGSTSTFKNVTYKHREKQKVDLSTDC

[2] = molecular target: T2, human αvβ6 on 293F:huβ6 cells (human, UniProt P06756 31-1048; P18564 22-788); experiment: saturation binding by flow cytometry on 293F:huβ6 cells; also confirmed by competition binding
T2 construct: whole, on cells; also called HEK293F:huβ6
Procedure: 0.1×10⁶ antigen expressing cells were aliquoted in each well of a 96-well v-bottom plate on ice. The cells were incubated for 1 hour with 2 nM AlexaFluor-647 labeled humanized 2A2 HCLG and increasing concentrations (from 4 pM-1 uM) of unlabeled humanized 2A2 HCLG antibody and h2A2-Mdpr-PEG(12)-gluc-MMAE(8) in buffer (Tris-buffered saline, 2% fetal bovine serum, 0.5 mM MnCl₂, 0.02% NaN₃). Cells were pelleted and washed 3 times with TBS/FBS. The cells were pelleted and resuspended in 125 uL of TBS/FBS. Fluorescent signal of binding was detected using a Becton Dickinson Biosciences LSR II (San Jose, CA). Percent of saturated fluorescent signal was used to determine percent labeled humanized 2A2 antibody bound to cells and to subsequently extrapolate the EC50 by fitting the data to a sigmoidal dose-response curve with variable slope using GraphPad Software (LaJolla, CA).
0.1×10⁶ antigen expressing cells were aliquoted per well into a 96-well v-bottom plate. m2A2 and h2A2 HCLG were directly labeled with AlexaFluor-647 and added to cells at concentrations ranging from 6 pM-340 nM in buffer (Tris-buffered saline, 2% fetal bovine serum, 0.5 mM MnCl₂, 0.02% NaN₃). […] Fluorescent signal of binding was detected using a Becton Dickinson Biosciences LSR II (San Jose, CA). The EC50 was calculated using GraphPad Software (LaJolla, CA).

B1: h2A2 HCLG humanized antibody (antibody, human IgG1, kappa, V domains shown)
VH: QFQLVQSGAEVKKPGASVKVSCKASGYSFTDYNVNWVRQAPGQGLEWIGVINPKYGTTRYNQKFKGRATLTVDKSTSTAYMELSSLRSEDTAVYYCTRGLNAWDYWGQGTLVTVSS
VL: DIQMTQSPSSLSASVGDRVTITCGASENIYGALNWYQQKPGKAPKLLIYGATNLEDGVPSRFSGSGSGRDYTFTISSLQPEDIATYYCQNVLTTPYTFGQGTKLEIKR
notes: Labelled with AlexaFluor-647 in the saturation assay; also called humanized 2A2 HCLG
Question: Which EC50 [1] does the source give for B1 here?
Answer: 3 nM

Question: Does B1 bind [2]?
Answer: binds
